Test results published in US20070196376A1 (AstraZeneca / MedImmune, published 2007).

Assays:
[1] = target: T1, human insulin-like growth factor-I (IGF-I) (human, UniProt P05019 49-118); test: Biacore high-resolution, mAb captured, IGF-I injected over a range of concentrations; second value, row without label
T1 construct: also called IGF1; IGF-1

[2] = target: T1, human insulin-like growth factor-I …; test: Biacore low-resolution screen, mAb captured, IGF-I injected
Method: (§1) The label-free surface plasmon resonance (SPR), or Biacore, was utilized to measure the antibody affinity to the antigen. For this purpose, a high-density goat anti-human antibody surface over a CM5 Biacore chip was prepared using routine amine coupling. All the mAbs were diluted to approximately 20 μg/ml in HBS-P running buffer containing 100 gg/ml BSA. Each mAb was captured on a separate surface using a 30-second contact time at 10 μL/min., and a 5-minute wash for stabilization of the mAb baseline.
(§2) The samples were prepared in the HBS-P running buffer described above. […] Drift-corrected binding data for the 34 mAbs was prepared by subtracting the signal from a control flow cell and subtracting the baseline drift of a buffer injected just prior to each antigen injection. […] A mass transport coefficient was used in fitting the data.

[3] = target: T2, human insulin-like growth factor-II (IGF-II) (human, UniProt P01344 25-91); test: cell-based or functional assay
[4] = target: T1, human insulin-like growth factor-I …; test: cell-based or functional assay
[5] = target: T2, human insulin-like growth factor-II …; test: cell-based or functional assay; remark: listed apart in the source
[6] = target: T1, human insulin-like growth factor-I …; test: Biacore high-resolution, mAb captured, IGF-I injected over a range of concentrations
mouse IGF-II = mouse IGF-II (mouse, UniProt P09535 25-91); test: cell-based or functional assay
mouse IGF-I = mouse IGF-I (mouse, UniProt P05017 49-118); test: cell-based or functional assay
[7] = target: T2, human insulin-like growth factor-II …; test: Biacore low-resolution analysis, IGF-II
Method: as §1, §2

[8] = target: T2, human insulin-like growth factor-II …; test: Biacore low-resolution screen, mAb captured, IGF-II injected
Method: as §1, §2

[9] = target: T2, human insulin-like growth factor-II …; test: Biacore high-resolution, mAb captured, IGF-II injected over a range of concentrations
[10] = target: T2, human insulin-like growth factor-II …; test: Biacore high-resolution, mAb captured, IGF-II injected over a range of concentrations; second value, row without label
[11] = target: T2, human insulin-like growth factor-II …; test: cell-based or functional assay; remark: listed apart in the source
[12] = target: T1, human insulin-like growth factor-I …; test: cell-based or functional assay; remark: listed apart in the source
[13] = target: T2, human insulin-like growth factor-II …; test: cell-based or functional assay; remark: listed apart in the source
[14] = target: T1, human insulin-like growth factor-I …; test: cell-based or functional assay; remark: listed apart in the source
[15] = target: T1, human insulin-like growth factor-I …; test: Biacore low-resolution analysis, IGF-I
Method: as §1, §2

[16] = target: T2, human insulin-like growth factor-II …; test: Biacore low-resolution screen, mAb captured, IGF-II injected; off-rate held constant in the fit; off-rate marked with asterisk; low-resolution screen, 5-minute dissociation
Method: as §1, §2

[17] = target: T1, human insulin-like growth factor-I …; test: Biacore low-resolution analysis, IGF-I; low-resolution screen, not high-resolution (294.0 pM)
Method: as §1, §2

| Kd [2] | koff [2] | kon [2] | EC50 (nM), n = 1, IGF-II pTYR, BxPC3 cells [3] | EC50 (nM), n = 2, IGF-II pTYR, BxPC3 cells [3] | Max % Inhibition (133.3 nM), n = 2, IGF-II pTYR, BxPC3 cells [3] | Max % Inhibition (333.3 nM), n = 1, IGF-II pTYR, BxPC3 cells [3] | EC50 (nM), n = 1, IGF-I pTYR, BxPC3 cells [4] | EC50 (nM), n = 2, IGF-I pTYR, BxPC3 cells [4] | Max % Inhibition (333.3 nM), n = 1, IGF-I pTYR, BxPC3 cells [4] | Max % Inhibition (333.3 nM), n = 2, IGF-I pTYR, BxPC3 cells [4] | EC50 (nM), n = 1, IGF-II Proliferation, BxPC3 cells [5] | EC50 (nM), n = 2, IGF-II Proliferation, BxPC3 cells [5] | Max % Inhibition (133.3 nM), n = 2, IGF-II Proliferation, BxPC3 cells [5] | Max % Inhibition (333.3 nM), n = 1, IGF-II Proliferation, BxPC3 cells [5] | Kd [6] | Mouse IGF-II EC50 (nM), n = 1, phosphorylation of hIGF-IR in NIH3T3 cells (mouse IGF-II) | Mouse IGF-II EC50 (nM), n = 2, phosphorylation of hIGF-IR in NIH3T3 cells (mouse IGF-II) | Mouse IGF-I EC50 (nM), n = 1, phosphorylation of hIGF-IR in NIH3T3 cells (mouse IGF-I) | Mouse IGF-I EC50 (nM), n = 2, phosphorylation of hIGF-IR in NIH3T3 cells (mouse IGF-I) | Binder | also measured |
| --- | --- | --- | --- | --- | --- | --- | --- | --- | --- | --- | --- | --- | --- | --- | --- | --- | --- | --- | --- | --- | --- |
| 0.615 nM | 0.0032 s⁻¹ | 5.2e+06 M⁻¹ s⁻¹ | 2 nM | 1.9 nM | 89.7% | 100% | 5.9 nM | 3.8 nM | 100% | 98.5% | 0.5 nM | 6.7 nM | 109% | 117% | 0.436 nM | 4 nM | 9.7 nM | 6 nM | 10.2 nM | mAb 7.34.1 (antibody, V domains shown, Fully human XenoMouse hybridoma mAb, lambda light chain (V1-13/JL2); also called ATCC PTA-7423) VH: QVQLQESGPGLVKPSETLSLTCTVSGGSISSYYWSWIRQPPGRGLEWIGYFFYSGYTNYNPSLKSRVTMSVDTSKNQFSLKLSSVTAADTAVYYCACITGTTKGGMDVWGQGATVTVSS VL: QSVLTQAPSVSGAPGQRVTISCTGRSSNIGAGYDVHWYQQFPGTAPKLLIYGNSNRPSGVPDRFSGSKSGTSASLAITGLQAEDEADYYCQSYDSSLSGSVFGGGTKLTVLG | Kd [1]: 0.421 nM; Kd [7]: 0.06 nM; Kd [8]: 0.06 nM; koff [8]: 0.00018 s⁻¹; kon [8]: 3e+06 M⁻¹ s⁻¹; Kd [9]: 0.164 nM; Kd [10]: 0.162 nM; % Inhibition, mean (n = 2), IGF-II Proliferation Assay, NIH3T3/hIGF-IR cells [11]: 73.6%; EC50 (nM), mean (n = 2), IGF-II Proliferation Assay, NIH3T3/hIGF-IR cells [11]: 16.3 nM; % Inhibition, mean (n = 3), IGF-I Proliferation Assay, NIH3T3/hIGF-IR cells [12]: 72.6%; EC50 (nM), mean (n = 3), IGF-I Proliferation Assay, NIH3T3/hIGF-IR cells [12]: 23.4 nM; % MAX Activation, mean (n = 2), IGF-II pTYR of hIGF-IR in NIH3T3 cells [13]: 21.5%; EC50 (nM), mean (n = 2), IGF-II pTYR of hIGF-IR in NIH3T3 cells [13]: 2.5 nM; % MAX Activation, mean (n = 2), IGF-I pTYR of hIGF-IR in NIH3T3 cells [14]: 14.2%; EC50 (nM), mean (n = 2), IGF-I pTYR of hIGF-IR in NIH3T3 cells [14]: 9.4 nM; Kd [15]: 0.615 nM |
| 0.216 nM | 0.00093 s⁻¹ | 4.3e+06 M⁻¹ s⁻¹ | 1.6 nM | 1.7 nM | 91.2% | 100% | 3.3 nM | 1.6 nM | 100% | 100% | 0.8 nM | 0.9 nM | 118% | 120% | 0.294 nM | 3.1 nM | 5 nM | 2.8 nM | 5.7 nM | mAb 7.159.2 (antibody, V domains shown, Fully human XenoMouse hybridoma mAb, lambda light chain (V1-19/JL2); Sister clones 7.159.1 and 7.159.2 are said to be identical; also called 7.159.1; 7_159_1) VH: QVQLVQSGAEVKKPGASVKVSCKASGYTFTSYDINWVRQATGQGLEWMGWMNPNSGNTGYAQKFQGRVTMTRNTSISTAYMELSSLRSEDTAVYYCARDPYYYYYGMDVWGQGTTVTVSS VL: QSVLTQPPSVSAAPGQKVTISCSGSSSNIENNHVSWYQQLPGTAPKLLIYDNNKRPSGIPDRFSGSKSGTSATLGITGLQTGDEADYYCETWDTSLSAGRVFGGGTKLTVLG | koff [16]: < 1e-05 s⁻¹; Kd [7]: 0.0029 nM; Kd [8]: < 0.00286 nM; kon [8]: 3.5e+06 M⁻¹ s⁻¹; Kd [9]: 0.0019 nM; Kd [17]: 0.216 nM; % Inhibition, mean (n = 2), IGF-II Proliferation Assay, NIH3T3/hIGF-IR cells [11]: 99.3%; EC50 (nM), mean (n = 2), IGF-II Proliferation Assay, NIH3T3/hIGF-IR cells [11]: 7.6 nM; % Inhibition, mean (n = 3), IGF-I Proliferation Assay, NIH3T3/hIGF-IR cells [12]: 77%; EC50 (nM), mean (n = 3), IGF-I Proliferation Assay, NIH3T3/hIGF-IR cells [12]: 24.1 nM; % MAX Activation, mean (n = 2), IGF-II pTYR of hIGF-IR in NIH3T3 cells [13]: 28.6%; EC50 (nM), mean (n = 2), IGF-II pTYR of hIGF-IR in NIH3T3 cells [13]: 3.1 nM; % MAX Activation, mean (n = 2), IGF-I pTYR of hIGF-IR in NIH3T3 cells [14]: 16.5%; EC50 (nM), mean (n = 2), IGF-I pTYR of hIGF-IR in NIH3T3 cells [14]: 7.4 nM |
